Measurements taken from patent US20220049021A1.

Each substance was assayed against T1, human FLT3 on AML5 cells (human) (UniProt P36888) (assay: cell-based or functional assay).
T1 sequence (looked up): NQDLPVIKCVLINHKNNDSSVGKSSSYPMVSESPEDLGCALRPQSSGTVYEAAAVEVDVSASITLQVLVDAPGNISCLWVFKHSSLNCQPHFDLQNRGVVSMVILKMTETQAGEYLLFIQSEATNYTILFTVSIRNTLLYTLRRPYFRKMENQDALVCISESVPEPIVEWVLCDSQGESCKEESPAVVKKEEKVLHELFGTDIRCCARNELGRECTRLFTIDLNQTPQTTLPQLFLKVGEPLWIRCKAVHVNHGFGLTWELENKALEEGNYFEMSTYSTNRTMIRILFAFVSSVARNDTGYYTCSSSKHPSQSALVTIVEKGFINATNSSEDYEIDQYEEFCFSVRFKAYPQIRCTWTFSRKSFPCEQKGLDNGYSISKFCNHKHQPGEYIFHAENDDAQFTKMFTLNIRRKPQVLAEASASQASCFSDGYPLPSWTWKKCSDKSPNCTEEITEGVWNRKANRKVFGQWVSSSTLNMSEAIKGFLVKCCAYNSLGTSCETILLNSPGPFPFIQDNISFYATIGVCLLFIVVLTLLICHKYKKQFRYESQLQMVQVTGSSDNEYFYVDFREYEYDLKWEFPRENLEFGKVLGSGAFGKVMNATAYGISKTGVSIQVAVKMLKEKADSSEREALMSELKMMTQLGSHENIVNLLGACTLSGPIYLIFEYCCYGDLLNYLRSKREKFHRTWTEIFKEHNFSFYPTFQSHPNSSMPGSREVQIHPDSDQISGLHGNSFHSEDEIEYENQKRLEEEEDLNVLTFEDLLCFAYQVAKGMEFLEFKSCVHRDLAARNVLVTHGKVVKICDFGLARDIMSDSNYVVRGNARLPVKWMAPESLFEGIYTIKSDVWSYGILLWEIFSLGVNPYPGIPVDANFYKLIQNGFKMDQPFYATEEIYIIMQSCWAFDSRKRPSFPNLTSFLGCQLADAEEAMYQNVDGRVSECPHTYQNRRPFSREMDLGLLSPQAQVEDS

Sequence of human FLT3-ligand (H8Y) human hingeless IgG1 fusion protein (SEQ ID NO:22) (Fc fusion) (chain): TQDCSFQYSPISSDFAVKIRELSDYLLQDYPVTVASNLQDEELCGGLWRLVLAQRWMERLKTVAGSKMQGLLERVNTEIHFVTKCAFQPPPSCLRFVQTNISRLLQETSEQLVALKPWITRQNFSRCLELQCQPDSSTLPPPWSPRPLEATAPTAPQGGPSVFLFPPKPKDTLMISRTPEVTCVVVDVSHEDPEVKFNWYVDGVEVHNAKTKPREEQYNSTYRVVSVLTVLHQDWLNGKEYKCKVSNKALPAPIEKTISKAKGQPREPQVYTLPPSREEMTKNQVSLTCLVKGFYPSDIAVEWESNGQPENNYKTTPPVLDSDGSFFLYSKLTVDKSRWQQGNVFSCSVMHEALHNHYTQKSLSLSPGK
Sequence of human FLT3-ligand human IgG1 fusion protein (SEQ ID NO:21) (Fc fusion) (chain): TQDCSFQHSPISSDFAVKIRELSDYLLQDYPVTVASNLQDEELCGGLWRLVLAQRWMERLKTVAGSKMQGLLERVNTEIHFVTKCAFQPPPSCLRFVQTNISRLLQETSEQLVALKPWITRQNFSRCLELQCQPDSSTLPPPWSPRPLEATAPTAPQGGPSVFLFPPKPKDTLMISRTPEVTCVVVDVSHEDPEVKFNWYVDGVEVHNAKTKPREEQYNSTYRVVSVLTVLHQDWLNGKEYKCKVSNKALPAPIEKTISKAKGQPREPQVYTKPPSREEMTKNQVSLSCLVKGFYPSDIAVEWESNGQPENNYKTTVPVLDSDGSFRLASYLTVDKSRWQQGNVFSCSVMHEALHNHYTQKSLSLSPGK

Row | Substance | EC50 (nM), Inducing Proliferation of AML5 Cells | potency in AML5 proliferation against SEQ ID NO:1
1 | human FLT3-ligand (H8Y) human hingeless IgG1 fusion protein (SEQ ID NO:22) (Fc fusion) | 0.014 nM | 2.5 fold
2 | human FLT3-ligand (H8Y+K84E) human hingeless IgG1 fusion protein (SEQ ID NO:24) (Fc fusion) | 0.013 nM | 2.5 fold
3 | human FLT3-ligand (K84E) human hingeless IgG1 fusion protein (SEQ ID NO:23) (Fc fusion) | 0.013 nM | 2.5 fold
4 | human FLT3-ligand human IgG1 fusion protein (SEQ ID NO:21) (Fc fusion) | 0.035 nM | 
